Literature values as cited in article PMC2656815.

Target: CRF1 receptor N-domain (Homo sapiens) (UniProt P34998)
Chain of UniProt P34998 (P34998 24-119): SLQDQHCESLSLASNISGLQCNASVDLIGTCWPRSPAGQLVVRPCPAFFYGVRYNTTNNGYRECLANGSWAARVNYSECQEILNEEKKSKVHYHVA

Kd: 50 nM
Substance: CRF (from UniProt P06850)
